Results published in US20180009879A1.

Columns and labels:
[1] = target: HSV-1 (HF strain, VR-260 ATCC): unidentified viral antigen on virions or infected VERO-E6 cells (Herpes simplex virus 1); assay: cell-based or functional assay
[2] = target: HSV-2 (MS strain, VR-540 ATCC): unidentified viral antigen on virions or infected VERO-E6 cells (Herpes simplex virus 2); assay: cell-based or functional assay

- concentration reducing HSV cytopathic effect by 50% (IIF assay) [1]: < 5 µg/mL
- concentration reducing HSV cytopathic effect by 50% (IIF assay) [2]: < 5 µg/mL
B1: Fab Ex2 (IgG1 Fab format) (Fab, V domains shown)
VH: LESGGGVVQPGRSLRLSCAASGFTFTTFAMHWVRQAPGKGLEWLAFISYDGSNKYYADSVKGRFTISRDNSKNTLYLQMNSLRAEDTSIYYCAREVWNYADYWGQGALVTVSS
VL: ELTQSPGTLSSSPGHRATLSCKASAPLGSNHMAWYQQKPGQAPRLLIYGASTRATGVPARFTGSGSGTDFTLTISSLQPEDFATYYCQQANSFPRTFGQGTKVEIK
